From patent publication EP1192182B1, “PITUITARY ADENYLATE CYCLASE ACTIVATING PEPTIDE (PACAP) RECEPTOR 3 (R3) AGONISTS AND THEIR PHARMACOLOGICAL METHODS OF USE” (priority 1999, dated 2001)
No end group written: not given here.

T1: PACAP-R3 (human, UniProt P41587 24-438)
T1 sequence (looked up): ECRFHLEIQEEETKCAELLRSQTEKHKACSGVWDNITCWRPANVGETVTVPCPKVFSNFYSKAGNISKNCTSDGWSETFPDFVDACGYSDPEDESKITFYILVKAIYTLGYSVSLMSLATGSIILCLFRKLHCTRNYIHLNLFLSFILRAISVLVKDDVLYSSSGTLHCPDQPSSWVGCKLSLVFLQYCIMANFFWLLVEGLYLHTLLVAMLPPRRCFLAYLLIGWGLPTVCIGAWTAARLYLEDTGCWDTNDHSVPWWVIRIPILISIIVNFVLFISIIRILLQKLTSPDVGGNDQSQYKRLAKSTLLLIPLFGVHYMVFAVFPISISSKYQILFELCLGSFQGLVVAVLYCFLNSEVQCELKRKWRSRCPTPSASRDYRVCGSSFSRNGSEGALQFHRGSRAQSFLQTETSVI


What follows are binders tested against T1, PACAP-R3 (assay: cell-based or functional assay).

**Q.** How did the “R3 Selectivity” value turn out when HSDAVFTDNYTRLRKQMAAKKYLNSIKK [R3P51] was run?
**A.** Its value is 90 ratio.

**Q.** For HSDGIFTESYSRYRKQMAVKKYLAALKKKRYKQRVKNK [R3P6], which “R3 Selectivity” value is on record?
**A.** The value was 3 ratio.

**Q.** HSDAVFTDNYTRLRKQVAVKKYLQSIKKK [R3P81] was tested. Which “R3 Selectivity” value did it give?
**A.** The value was 100 ratio.

**Q.** For HSDAVFTDNYTRLRKQMAAKKYLNSILN [R3P47], which “R3 Selectivity” value is on record?
**A.** Its value is 6 ratio.

**Q.** How did the “R3 Selectivity” value turn out when HSDAVFTDNYTRLRKQVAVKKYLQSILKK [R3P89] was run?
**A.** Its value is 15 ratio.

**Q.** For HSDGIFTDSYSRYRKQLAAKKYLADVKKGGT [R3P37], which “R3 Selectivity” value is on record?
**A.** The value was 18 ratio.

**Q.** HSDAVFTDNYTRLRKQVAAKKYLNSIKK [R3P62] was tested. Which “R3 Selectivity” value did it give?
**A.** The value was 100 ratio.

**Q.** For Ac-HSDAVFTENYTKLRKQLAAKKYLNDLKKGGT (ends and bridges not checked) [R3P2], which “R3 Selectivity” value is on record?
**A.** Its value is > 300 ratio.

**Q.** For HSDAVFTDNYTRLRKQMAAKKYLNSIKKKR [R3P53], which “R3 Selectivity” value is on record?
**A.** The value was 2500 ratio.

**Q.** For HSDAVFTENYTKLRKQLAAKKYLNDLKKGGT [R3P3], which “R3 Selectivity” value is on record?
**A.** Its value is 130 ratio.

**Q.** For HSDAVFTENYTKLRKQLAAKKYLNDLLNGGT [R3P10], which “R3 Selectivity” value is on record?
**A.** Its value is 0.3 ratio.

**Q.** With HSDAVFTDNYTRLRKQMAVKKYLNSIKKK [R3P58] as the binder, how does the “R3 Selectivity” value read?
**A.** Its value is 170 ratio.

**Q.** How did the “R3 Selectivity” value turn out when HSDAVFTENYTKLRKQLAAKKYLNDLKK [R3P5] was run?
**A.** Its value is 30 ratio.

**Q.** How did the “R3 Selectivity” value turn out when HSDAVFTDNYTRLRKQMAAKKYLNSIKKK [R3P54] was run?
**A.** The value was > 200 ratio.

**Q.** Which “R3 Selectivity” value does the source give for HSDGIFTDSYSRYRKQMAVKKYLAAVKKYLAAVRHG-NH2 [R3P17] here?
**A.** Its value is 2 ratio.

**Q.** How did the “R3 Selectivity” value turn out when HSDAVFTDNYTRLRKQVAAKKYLNSIKKKR [R3P78] was run?
**A.** Its value is 230 ratio.

**Q.** Which “R3 Selectivity” value does the source give for HSDAVFTDNYTRLRKQVAVKKYLQSILKKR [R3P88] here?
**A.** The value was 12 ratio.

**Q.** Which “R3 Selectivity” value does the source give for HSDAVFTDQYTRLRKQLAAKKYLNTIKNKRY [R3P72] here?
**A.** The value was > 600 ratio.

**Q.** With HSDAVFTDQYTRLRKQLAAHKYLNTIKNKRY [R3P75] as the binder, how does the “R3 Selectivity” value read?
**A.** The value was > 500 ratio.

**Q.** HSDAVFTDNYTRLRKQIAAKKYLQTIKK [R3P61] was tested. Which “R3 Selectivity” value did it give?
**A.** Its value is 140 ratio.

**Q.** For HSDAVFTDNYTRLRKQMAVKKYLNSIKK-NH2 [R3P8], which “R3 Selectivity” value is on record?
**A.** The value was 1.5 ratio.

**Q.** How did the “R3 Selectivity” value turn out when HSDGIFTDSYSRYRKQMAVKKYLAAVKQGGT-NH2 [R3P16] was run?
**A.** Its value is 1.4 ratio.

**Q.** For HSDAVFTDNYTRLRKQVAAKKYLQSIKKKR [R3P77], which “R3 Selectivity” value is on record?
**A.** Its value is 500 ratio.

**Q.** How did the “R3 Selectivity” value turn out when HSDAVFTDNYTRLRKQVAAKKYLQSIKK [R3P60] was run?
**A.** The value was 120 ratio.

**Q.** With HSDAVFTDNYTRLRKQMAAKKYLNSIKKKRY [R3P52] as the binder, how does the “R3 Selectivity” value read?
**A.** The value was > 250 ratio.

**Q.** For HSDAVFTDNYTRLRKQVAAKKYLQSILKKRY [R3P83], which “R3 Selectivity” value is on record?
**A.** Its value is 60 ratio.

**Q.** For HSDAVFTDNYTRLRKQMAAKKYLNTIKNKRY [R3P70], which “R3 Selectivity” value is on record?
**A.** The value was > 250 ratio.

**Q.** With HSDAVFTDNYTRLRKQMAAKKYLQSIKNKRY [R3P69] as the binder, how does the “R3 Selectivity” value read?
**A.** The value was 190 ratio.

**Q.** How did the “R3 Selectivity” value turn out when HSDAVFTDQYTRLRKQMAAKKYLNSIKNKRY [R3P71] was run?
**A.** The value was 660 ratio.

**Q.** With HSDAVFTDNYTRLRKQMAAKKYLNSIKNKRY [R3P55] as the binder, how does the “R3 Selectivity” value read?
**A.** Its value is 280 ratio.

**Q.** With HSDAVFTDNYTRLRKQMAVKKYLNSIKNKRY [R3P59] as the binder, how does the “R3 Selectivity” value read?
**A.** Its value is 70 ratio.

**Q.** How did the “R3 Selectivity” value turn out when HSDAVFTDNYTRLRKQVAAKKYLQSIKNKRY [R3P66] was run?
**A.** The value was 250 ratio.

**Q.** HSDAVFTDNYTRLRKQMAAKHYLNSIKNKRY [R3P74] was tested. Which “R3 Selectivity” value did it give?
**A.** Its value is 150 ratio.

**Q.** For HSDAVFTDNYTRLRKQMAAHKYLNSIKNKRY [R3P73], which “R3 Selectivity” value is on record?
**A.** The value was 170 ratio.

**Q.** How did the “R3 Selectivity” value turn out when HSDAVFTDNYTRLRKQLAAKKYLNTIKNKRY [R3P67] was run?
**A.** Its value is 330 ratio.

**Q.** Which “R3 Selectivity” value does the source give for HSDAVFTDNYTRLRKQMAVKKYLNSIKKKRY [R3P56] here?
**A.** The value was 100 ratio.

**Q.** HSDAVFTDNYTRLRKQMAAKKYLNSIKNKR [R3P65] was tested. Which “R3 Selectivity” value did it give?
**A.** Its value is 130 ratio.

**Q.** How did the “R3 Selectivity” value turn out when HSDGIFTDSYSRYRKQLAAKKYLADVKK [R3P38] was run?
**A.** Its value is 7 ratio.

**Q.** What does the source list for HSDAVFTDNYTRLRKQVAAKKYLQSILNK [R3P93]?
**A.** R3 EC50: 0.14 nM; R3 Selectivity: 40 ratio

**Q.** With HSDAVFTDNYTRLRKQMAAKKYLNSIKN [R3P49] as the binder, how does the “R3 Selectivity” value read?
**A.** The value was 30 ratio.

**Q.** For HSDAVFTDNYTRLRKQMAVKKYLNDILN [R3P48], which “R3 Selectivity” value is on record?
**A.** The value was 8 ratio.

**Q.** Which results are given for HSDAVFTDNYTRLRKQMACKKYLNSIKNKR [R3P94]?
**A.** R3 EC50: 0.09 nM; R3 Selectivity: 100 ratio

**Q.** With HSDAVFTDNYTRLRKQLAAKKYLNDILKGGT [R3P23] as the binder, how does the “R3 Selectivity” value read?
**A.** Its value is 23 ratio.

**Q.** Which “R3 Selectivity” value does the source give for HSDAVFTDNYTRLRKQLAVKKYLNDILKGGT [R3P28] here?
**A.** The value was 1 ratio.

**Q.** How did the “R3 Selectivity” value turn out when HSDAVFTDNYTRLRKQLAAKKYLNDILNGGT [R3P27] was run?
**A.** The value was 8 ratio.

**Q.** For HSDAVFTENYTRLRKQMAVKKYLNSLKK-NH2 [R3P7], which “R3 Selectivity” value is on record?
**A.** The value was 0.5 ratio.

**Q.** How did the “R3 Selectivity” value turn out when HSDAVFTDNYTRLRKQVAAKKYLQSILKKR [R3P84] was run?
**A.** The value was 40 ratio.

**Q.** How did the “R3 Selectivity” value turn out when HSDAVFTDNYTRLRKQMAVKKYLNSIKKGGT [R3P9] was run?
**A.** The value was 20 ratio.

**Q.** Which “R3 Selectivity” value does the source give for HSDAVFTDNYTRLRKQLAVKKYLNSILN [R3P46] here?
**A.** The value was 7 ratio.

**Q.** Which “R3 Selectivity” value does the source give for HSDAVFTDNYTRLRKQVAVKKYLQSIKNKRY [R3P82] here?
**A.** Its value is 23 ratio.

**Q.** With HSDAVFTDNYTRLRKQVAVKKYLQSILKKRY [R3P87] as the binder, how does the “R3 Selectivity” value read?
**A.** Its value is 3 ratio.

**Q.** For HSDAVFTDNYTRLRKQVAAKKYLQSILNKR [R3P92], which “R3 EC50” value is on record?
**A.** The value was 0.02 nM.

**Q.** What about the “R3 Selectivity” value of the same binder?
**A.** Its value is 100 ratio.

**Q.** For HSDAVFTDNYTRLRKQVAAKKYLQSIKNK [R3P86], which “R3 Selectivity” value is on record?
**A.** The value was 110 ratio.

**Q.** With HSDAVFTDNYTRLRKQVAAKKYLQSILKK [R3P85] as the binder, how does the “R3 Selectivity” value read?
**A.** Its value is 30 ratio.

**Q.** For HSDAVFTDNYTRLRKQMAVKKYLNSIKKKR [R3P57], which “R3 Selectivity” value is on record?
**A.** The value was 190 ratio.

**Q.** How did the “R3 Selectivity” value turn out when HSDGIFTDSYSRYRKQMAVKKYLAAVKK [R3P40] was run?
**A.** The value was 2 ratio.

**Q.** Which “R3 Selectivity” value does the source give for HSDGIFTDSYSRYRKQLAVKKYLAAVKK [R3P39] here?
**A.** The value was 2 ratio.

**Q.** How did the “R3 Selectivity” value turn out when HSDAVFTDNYTRLRKQMAAKKYLNSILK [R3P50] was run?
**A.** Its value is 6 ratio.
